Our source for the binding signal (fold recovery over beads only) values is patent US20100048413.

In the data set the test system is aspRS-OB wild type (anticodon-binding OB-fold domain of aspartyl-tRNA synthetase) (Pyrobaculum aerophilum). The data set is described as follows: pulldown. The following applies: phage binding to immobilised tRNA; RNase A elution; VCS-M13 without display 1.42.

“asp-tRNA (P. aerophilum, in vitro transcript)” showed a binding signal (fold recovery over beads only) of 190.
